Measurements: publication PMC6251626
Each block holds one binder with its values, some of them ahead of it.

Experiments:
[1] = target: αβ-tubulin heterodimer purified from porcine brains (porcine) (UniProt P02550); assay: SEC-MALS; Alp14 constructs mixed with soluble αβ-tubulin (with or without DRP), Superdex 200 Increase 10/300, 80-100 mM KCl
[2] = target: DRP-bound αβ-tubulin (1:1 complex of porcine αβ-tubulin and DARPin D1) (porcine) (UniProt P02550); assay: SEC; quantitative SEC (Superdex 200 10/300) with SDS-PAGE densitometry of fractions; 1 αβ-tubulin per Alp14 subunit, with or without DRP; 200 mM KCl, 50 mM HEPES pH 7.0, 1 mM MgCl2, 1 mM β-mercaptoethanol
[3] = target: αβ-tubulin heterodimer purified from porcine brains (porcine) (UniProt P02550); assay: as above
[4] = target: DRP-bound αβ-tubulin (1:1 complex of porcine αβ-tubulin and DARPin D1) (porcine) (UniProt P02550); assay: SEC; quantitative SEC (Superdex 200 10/300) with SDS-PAGE densitometry of fractions; 2 αβ-tubulin per Alp14 subunit, with or without DRP; 200 mM KCl, 50 mM HEPES pH 7.0, 1 mM MgCl2, 1 mM β-mercaptoethanol
[5] = target: αβ-tubulin heterodimer purified from porcine brains (porcine) (UniProt P02550); assay: as above
[6] = target: DRP-bound αβ-tubulin (1:1 complex of porcine αβ-tubulin and DARPin D1) (porcine) (UniProt P02550); assay: SEC; quantitative SEC (Superdex 200 10/300) with SDS-PAGE densitometry of fractions; 2 αβ-tubulin per Alp14 subunit, with or without DRP; 100 mM KCl, 50 mM HEPES pH 7.0, 1 mM MgCl2, 1 mM β-mercaptoethanol
[7] = target: αβ-tubulin heterodimer purified from porcine brains (porcine) (UniProt P02550); assay: as above
[8] = target: DRP-bound αβ-tubulin (1:1 complex of porcine αβ-tubulin and DARPin D1) (porcine) (UniProt P02550); assay: SEC; quantitative SEC (Superdex 200 10/300) with SDS-PAGE densitometry of fractions; 1 αβ-tubulin per Alp14 subunit, with or without DRP; 100 mM KCl, 50 mM HEPES pH 7.0, 1 mM MgCl2, 1 mM β-mercaptoethanol
[9] = target: αβ-tubulin heterodimer purified from porcine brains (porcine) (UniProt P02550); assay: as above
[10] = target: DRP-bound αβ-tubulin (1:1 complex of porcine αβ-tubulin and DARPin D1) (porcine) (UniProt P02550); assay: ITC; TOG1 or TOG2 (100-250 μM) injected into a cell with 1:1 αβ-tubulin and DRP (20-40 μM); 25°C, 50 mM HEPES pH 7.3, 100 mM KCl, 1 mM MgCl2
[11] = target: DRP-bound αβ-tubulin (1:1 complex of porcine αβ-tubulin and DARPin D1) (porcine) (UniProt P02550); assay: ITC; TOG1 or TOG2 (100-250 μM) injected into a cell with 1:1 αβ-tubulin and DRP (20-40 μM); 25°C, 50 mM HEPES pH 7.3, 200 mM KCl, 1 mM MgCl2
[12] = target: DRP-bound αβ-tubulin (1:1 complex of porcine αβ-tubulin and DARPin D1) (porcine) (UniProt P02550); assay: SEC-MALS; Alp14 constructs mixed with soluble αβ-tubulin (with or without DRP), Superdex 200 Increase 10/300, 80-100 mM KCl

B1: wt-Alp14-dimer (S. pombe Alp14 residues 1-690) (domain or fragment)
chain: MSQDQEEDYSKLPLESRIVHKVWKVRLSAYEECSKSFSLSADGSDNCFELWNNQSELWKSVLTDSNVAAQEAGTAAFVAYCRFSDPSHLLKAREISVLSISEKCLTSPRAGTRENALEALMLLVEADSAAPVIESIIPSLSARSPKVIASNVAAIASLVEQFGAKVIPSKMIIPHISNLFGHADKNVRKEASRLTVNIYRWTGDPLKDLLFKDLRPVQTKELESLFAELPTEPPKQTRFLKSQQPTSEPNVETQVEEQPALENEESEPEPSDDQFDLVEEVDVLPNVDPNLETLMASSKWKDRKEALDKLLPVLSQPKIKDNDFFNLVAILTKSVSKDANIMVVINAAHCIQAMAKGLRSNFSKYASTSINALLERSKEKKANVIESLSSAMDAVLATSSLDDLAELIASFAGNKNPQIKSSCFSLFSRSFSNMTSLPSKFTVDTCAKACVPGVSDTFEPVRSAAAEALGVLMKLVGERAINQYLSPLDDIRKSKIRSFYETATVKAKAPTKKSKVKPSKQEESKVVVPSNAKAVKKSVVPSSPVVPSPRKATNKSLSMDVSKGNAFENGPLLPRPTTRPVSRGLSRGTSSSLQQKVKASTPLNSGALNETVQNLKNMELDDPAPQPAKHSRVDRYEHPKVLEDNDSTISSLESLKRENEELREQLKVEHEENISMQKQLSELKGELNTL
- stoichiometry N [1]: 4
- TOG1-TOG2:αβ-tubulin molar ratio [2]: 0.95
- µM tubulin bound [2]: 4.17 µM
- TOG1-TOG2:αβ-tubulin molar ratio [3]: 0.78
- µM tubulin bound [3]: 3.44 µM
- TOG1-TOG2:αβ-tubulin molar ratio [4]: 1.36
- µM tubulin bound [4]: 6.02 µM
- TOG1-TOG2:αβ-tubulin molar ratio [5]: 1.24
- µM tubulin bound [5]: 5.46 µM
- TOG1-TOG2:αβ-tubulin molar ratio [6]: 1.89
- stoichiometry N [6]: 4
- µM tubulin bound [6]: 8.33 µM
- TOG1-TOG2:αβ-tubulin molar ratio [7]: 1.61
- µM tubulin bound [7]: 7.11 µM
- TOG1-TOG2:αβ-tubulin molar ratio [8]: 0.96
- µM tubulin bound [8]: 4.23 µM
- TOG1-TOG2:αβ-tubulin molar ratio [9]: 0.98
- µM tubulin bound [9]: 4.31 µM

B2: isolated TOG2 domain of Alp14 (residues 320-510) (domain or fragment)
chain: KDNDFFNLVAILTKSVSKDANIMVVINAAHCIQAMAKGLRSNFSKYASTSINALLERSKEKKANVIESLSSAMDAVLATSSLDDLAELIASFAGNKNPQIKSSCFSLFSRSFSNMTSLPSKFTVDTCAKACVPGVSDTFEPVRSAAAEALGVLMKLVGERAINQYLSPLDDIRKSKIRSFYETATVKAKAP
- Kd [10]: 173 nM
- Kd [11]: 3250 nM

Other lines, results leading:

- stoichiometry N [12]: 2
- stoichiometry N [1]: 2
- TOG1-TOG2:αβ-tubulin molar ratio [2]: 0.94
- µM tubulin bound [2]: 4.13 µM
- TOG1-TOG2:αβ-tubulin molar ratio [3]: 0.76
- µM tubulin bound [3]: 3.37 µM
- TOG1-TOG2:αβ-tubulin molar ratio [4]: 1.28
- µM tubulin bound [4]: 5.67 µM
- TOG1-TOG2:αβ-tubulin molar ratio [5]: 1.35
- µM tubulin bound [5]: 5.97 µM
- TOG1-TOG2:αβ-tubulin molar ratio [6]: 1.64
- µM tubulin bound [6]: 7.23 µM
- TOG1-TOG2:αβ-tubulin molar ratio [7]: 2
- µM tubulin bound [7]: 8.82 µM
- TOG1-TOG2:αβ-tubulin molar ratio [8]: 0.98
- µM tubulin bound [8]: 4.33 µM
- TOG1-TOG2:αβ-tubulin molar ratio [9]: 1.04
- µM tubulin bound [9]: 4.57 µM
B3: wt-Alp14-monomer (S. pombe Alp14 residues 1-510) (domain or fragment)
chain: MSQDQEEDYSKLPLESRIVHKVWKVRLSAYEECSKSFSLSADGSDNCFELWNNQSELWKSVLTDSNVAAQEAGTAAFVAYCRFSDPSHLLKAREISVLSISEKCLTSPRAGTRENALEALMLLVEADSAAPVIESIIPSLSARSPKVIASNVAAIASLVEQFGAKVIPSKMIIPHISNLFGHADKNVRKEASRLTVNIYRWTGDPLKDLLFKDLRPVQTKELESLFAELPTEPPKQTRFLKSQQPTSEPNVETQVEEQPALENEESEPEPSDDQFDLVEEVDVLPNVDPNLETLMASSKWKDRKEALDKLLPVLSQPKIKDNDFFNLVAILTKSVSKDANIMVVINAAHCIQAMAKGLRSNFSKYASTSINALLERSKEKKANVIESLSSAMDAVLATSSLDDLAELIASFAGNKNPQIKSSCFSLFSRSFSNMTSLPSKFTVDTCAKACVPGVSDTFEPVRSAAAEALGVLMKLVGERAINQYLSPLDDIRKSKIRSFYETATVKAKAP

- Kd [10]: 70 nM
- Kd [11]: 1500 nM
B4: isolated TOG1 domain of Alp14 (residues 1-270) (domain or fragment)
chain: MSQDQEEDYSKLPLESRIVHKVWKVRLSAYEECSKSFSLSADGSDNCFELWNNQSELWKSVLTDSNVAAQEAGTAAFVAYCRFSDPSHLLKAREISVLSISEKCLTSPRAGTRENALEALMLLVEADSAAPVIESIIPSLSARSPKVIASNVAAIASLVEQFGAKVIPSKMIIPHISNLFGHADKNVRKEASRLTVNIYRWTGDPLKDLLFKDLRPVQTKELESLFAELPTEPPKQTRFLKSQQPTSEPNVETQVEEQPALENEESEPEP
